The results in this text go back to patent US20050118183A1 (IMMUNOGEN, published 2005).

Experiment [1] addresses CD33 (human) (UniProt P20138). The experiment can be described thus: direct binding on HL-60 whole cells; direct on cells.
The target of experiment [2] is CD33 (human) (UniProt P20138). The experiment can be described thus: direct binding on HL-60 membranes; direct on membranes.
The target of experiment [3] is CD33 (human) (UniProt P20138). The experiment can be described thus: competitive binding on HL-60 membranes; competitive on membranes.
Another experiment concerns the target T1, CD33 (human, UniProt P20138 18-364).
T1 construct: whole, on cells; Presented on U-937 cells, HL-60 whole cells, dried HL-60 plasma membranes, THP-1 cells and CD33-transfected 3T3 murine fibroblasts; also called CD33 antigen; human CD33
The experiment can be described thus: flow cytometry on HL-60 cells. Here is the method: HL-60 cells were incubated with various concentrations of either My9-6 antibody or My9-6-DM1. The cells were then washed and incubated with a secondary FITC-labeled anti-murine IgG antibody. Following an additional wash, cells were fixed with 2% formaldehyde and cell-associated fluorescence was quantified using a BD FACScan flow cytometer.

Chain of CD33 (human) (P20138 18-364): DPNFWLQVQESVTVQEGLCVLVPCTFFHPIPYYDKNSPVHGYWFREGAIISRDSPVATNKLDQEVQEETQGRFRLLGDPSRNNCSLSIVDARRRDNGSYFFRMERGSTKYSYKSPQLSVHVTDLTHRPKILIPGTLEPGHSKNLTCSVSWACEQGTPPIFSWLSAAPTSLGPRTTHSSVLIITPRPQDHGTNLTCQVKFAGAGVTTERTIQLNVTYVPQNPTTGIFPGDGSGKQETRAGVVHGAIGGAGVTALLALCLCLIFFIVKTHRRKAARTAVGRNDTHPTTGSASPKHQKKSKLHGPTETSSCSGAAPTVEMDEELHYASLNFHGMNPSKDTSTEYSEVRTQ
T1 sequence (P20138 18-364): as above

Take murine My9-6 antibody: the Kd with CD33 (human) [1] stood at 1.1 nM; with CD33 (human) [2], 0.0513 nM; with CD33 (human) [3], 0.174 nM.

B1: My9-6-DM1 immunoconjugate (antibody, IgG1, V domains shown)
VH: QVQLQQPGAEVVKPGASVKMSCKASGYTFTSYYIHWIKQTPGQGLEWVGVIYPGNDDISYNQKFKGKATLTADKSSTTAYMQLSSLTSEDSAVYYCAREVRLRYFDVWGAGTTVTVSS
VL: NIMLTQSPSSLAVSAGEKVTMSCKSSQSVFFSSSQKNYLAWYQQIPGQSPKLLIYWASTRESGVPDRFTGSGSGTDFTLTISSVQSEDLAIYYCHQYLSSRTFGGGTKLEIKR
modifications: DM1 (thiol-containing maytansinoid) linked by disulfide through SPP; 3-5 pyridyldithio groups introduced per molecule of antibody; residues and chain not stated
B1: the binding result with CD33 is “binds”.

In general, Kd refers to the concentration at which binding is half-saturated.
